Laboratory results reported in patent US20220396620A1 (Takeda / Millennium, published 2022).

Tests used:
[1] = target: T1, human cannabinoid receptor type 1 (CB1) (human, UniProt P21554 1-472); experiment: flow cytometry, single point at 30 ug/mL antibody on CHO-huCB-1 cells
T1 construct: DiscoverX cAMP Hunter CHO-K1 CNR1 Gi cells for cAMP and pERK assays; also called huCB1; huCB-1

[2] = target: T1, human cannabinoid receptor type 1 (CB1); experiment: FACS on CHO-huCB-1 cells, single concentration 30 ug/mL

T1 sequence (P21554 whole entry): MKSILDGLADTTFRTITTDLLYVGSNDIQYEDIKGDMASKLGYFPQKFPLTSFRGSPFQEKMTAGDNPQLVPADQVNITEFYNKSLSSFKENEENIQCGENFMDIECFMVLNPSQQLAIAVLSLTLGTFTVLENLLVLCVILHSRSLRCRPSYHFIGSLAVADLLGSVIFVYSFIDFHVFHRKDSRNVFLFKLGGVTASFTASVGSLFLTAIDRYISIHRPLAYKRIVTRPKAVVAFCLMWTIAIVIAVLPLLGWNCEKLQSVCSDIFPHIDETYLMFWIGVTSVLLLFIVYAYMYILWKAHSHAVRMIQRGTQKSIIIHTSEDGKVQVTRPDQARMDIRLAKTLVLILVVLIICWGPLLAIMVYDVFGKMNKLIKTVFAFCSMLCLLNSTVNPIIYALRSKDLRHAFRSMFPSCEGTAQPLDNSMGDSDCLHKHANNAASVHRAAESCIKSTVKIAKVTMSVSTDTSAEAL

Binder	binding result [1]	binding result [2]
M5-H1 humanized anti-CB1 antibody (antibody, human IgG1, kappa, L234A L235A, V domains shown) VH: QVQLVQSGAEVVKPGASVKISCKASGYEFSYYWMNWVKQAPGQGHEWIGQIYPGDGDTNYNGKFKGKATLTADKSTSTAYMELSSLRSEDTAVYFCARGREAAWFAYWGQGTLVTVSS VL: DIQLTQSPSSLSVSVGDRATITCRASQSVSSFRYSYLHWYQQKPGKAPKLLIKYASNLESGVPSRFSGSGSGTDFTLTISSVQPEDFATYFCQHSWEIPFTFGQGTKLEIKR	binds	–
M7-H3 humanized anti-CB1 antibody (antibody, human IgG1, kappa, L234A L235A, V domains shown) VH: QVQLVQSGAEVKKPGASVKVSCKASSYTFTRYWMNWVKQAPGQGLEWIGMIDPYDSETHYNQKFQGRATLTVDTSTSTVYMELSSLRSEDTAVYFCARSQPRYYAMDYWGQGTTVTVSS VL: DIQMTQSPSSLSASLGDRVTLTCRASQEISGFLSWLQLKPGKTIKRLIYAASSLDSGVPSRFSGSWSGTDYTLTISSLQPEDFADYYCLQYSSYPYTFGGGTKLEIKR	binds	–
M7-H6 humanized anti-CB1 antibody (antibody, human IgG1, kappa, V domains shown) VH: QVQLVQSGAEVKKPGASVKVSCKASSYTFTRYWMNWVRQAPGQGLEWMGMIDPYDSETHYNQKFKDRVTMTRDTSTSTVYMELSSLRSEDTAVYYCARSQPRYYAMDYWGQGTSVTVSS VL: DIQMTQSPSSLSASVGDRVTITCRASQEISGFLAWFQQKPGKAPKSLIYAASSLQSGVPSRFSGSGSGTDFTLTISSLQPEDFATYYCQQYSSYPYTFGGGTKLEIKR	–	binds

The next lines start with the values.

binding result [1]	binding result [2]	Binder
binds	–	M5-H2 humanized anti-CB1 antibody (antibody, human IgG1, kappa, L234A L235A, V domains shown) VH: QVQLVQSGAEVKKPGASVKVSCKASGYEFSYYWMNWVRQAPGQGHEWIGQIYPGDGDTNYNQKFQGRVTLTADTSTSTAYMELSSLRSEDTAVYFCARGREAAWFAYWGQGTLVTVSS VL: DIQLTQSPSSLSVSVGDRATITCRASQSVSSFRYSYLHWYQQKPGKAPKLLIKYASNLESGVPSRFSGSGSGTDFTLTISSVQPEDFATYFCQHSWEIPFTFGQGTKLEIKR
–	binds	M7-H5 humanized anti-CB1 antibody (antibody, human IgG1, kappa, L234A L235A, V domains shown) VH: QVQLVQSGAEVVKPGASVKLSCKASSYTFTRYWMNWVKQAPGQGLEWIGMIDPYDSETHYNQKFKDKAILTVDKSTSTAYMELSTLRSEDTAVYFCARSQPRYYAMDYWGQGTSVTVSS VL: DIQMTQSPSSLSASLGDRVTLTCRASQEISGFLSWLQLRPDGTIKRLIYAASSLDSGVPSRFRGSWSGTDYTLTISSLQSEDFADYYCLQYSSYPYTFGGGTKLEIKR
binds	–	M7-H2 humanized anti-CB1 antibody (antibody, human IgG1, kappa, L234A L235A) heavy: not shown light: DIQMTQSPSSLSASVGDRVTLTCRASQEISGFLSWLQLKPGKAIKRLIYAASSLDSGVPSRFSGSWSGTDYTLTISSLQPEDFADYYCLQYSSYPYTFGGGTKVEIKRTVAAPSVFIFPPSDEQLKSGTASVVCLLNNFYPREAKVQWKVDNALQSGNSQESVTEQDSKDSTYSLSSTLTLSKADYEKHKVYACEVTHQGLSSPVTKSFNRGEC
